T1: TNFR1 (Homo sapiens, UniProt P19438)
T1 chain: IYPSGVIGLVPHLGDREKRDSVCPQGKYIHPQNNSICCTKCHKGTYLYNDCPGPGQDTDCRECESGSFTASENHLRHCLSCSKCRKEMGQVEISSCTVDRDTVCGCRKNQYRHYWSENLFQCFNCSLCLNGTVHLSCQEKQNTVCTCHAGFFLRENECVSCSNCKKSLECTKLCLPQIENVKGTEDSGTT


Target: T1, TNFR1
Test: yeast display SC50

| Binder | apparent Kd (screen) |
| --- | --- |
| R50G (designed binder) MTLQELLREEALRRAEAEAFRYALELLAEKFPEQKEYLLDLAEEIESQIGSLSGVDVEDVRKFLDKEWAWVKELLAEHPAELAEVEAARAARLAELRAEVEAKVAA | 1.05 nM |
| D56A (designed binder) MTLQELLREEALRRAEAEAFRYALELLAEKFPEQKEYLLDLAEEIESQIRSLSGVAVEDVRKFLDKEWAWVKELLAEHPAELAEVEAARAARLAELRAEVEAKVAA | 2.05 nM |
| L12V (designed binder) MTLQELLREEAVRRAEAEAFRYALELLAEKFPEQKEYLLDLAEEIESQIRSLSGVDVEDVRKFLDKEWAWVKELLAEHPAELAEVEAARAARLAELRAEVEAKVAA | 0.539 nM |
| E16I (designed binder) MTLQELLREEALRRAIAEAFRYALELLAEKFPEQKEYLLDLAEEIESQIRSLSGVDVEDVRKFLDKEWAWVKELLAEHPAELAEVEAARAARLAELRAEVEAKVAA | 0.539 nM |
| L24G (designed binder) MTLQELLREEALRRAEAEAFRYAGELLAEKFPEQKEYLLDLAEEIESQIRSLSGVDVEDVRKFLDKEWAWVKELLAEHPAELAEVEAARAARLAELRAEVEAKVAA | 1.4 nM |
| Y37I (designed binder) MTLQELLREEALRRAEAEAFRYALELLAEKFPEQKEILLDLAEEIESQIRSLSGVDVEDVRKFLDKEWAWVKELLAEHPAELAEVEAARAARLAELRAEVEAKVAA | 22.2 nM |
| L52R (designed binder) MTLQELLREEALRRAEAEAFRYALELLAEKFPEQKEYLLDLAEEIESQIRSRSGVDVEDVRKFLDKEWAWVKELLAEHPAELAEVEAARAARLAELRAEVEAKVAA | 11.4 nM |
| L39H (designed binder) MTLQELLREEALRRAEAEAFRYALELLAEKFPEQKEYLHDLAEEIESQIRSLSGVDVEDVRKFLDKEWAWVKELLAEHPAELAEVEAARAARLAELRAEVEAKVAA | 2.48 nM |
| L6V (designed binder) MTLQEVLREEALRRAEAEAFRYALELLAEKFPEQKEYLLDLAEEIESQIRSLSGVDVEDVRKFLDKEWAWVKELLAEHPAELAEVEAARAARLAELRAEVEAKVAA | 2.48 nM |
| L24D (designed binder) MTLQELLREEALRRAEAEAFRYADELLAEKFPEQKEYLLDLAEEIESQIRSLSGVDVEDVRKFLDKEWAWVKELLAEHPAELAEVEAARAARLAELRAEVEAKVAA | 1.86 nM |
| S51C (designed binder) MTLQELLREEALRRAEAEAFRYALELLAEKFPEQKEYLLDLAEEIESQIRCLSGVDVEDVRKFLDKEWAWVKELLAEHPAELAEVEAARAARLAELRAEVEAKVAA | 1.05 nM |
| Y37A (designed binder) MTLQELLREEALRRAEAEAFRYALELLAEKFPEQKEALLDLAEEIESQIRSLSGVDVEDVRKFLDKEWAWVKELLAEHPAELAEVEAARAARLAELRAEVEAKVAA | 24.4 nM |
| E10L (designed binder) MTLQELLRELALRRAEAEAFRYALELLAEKFPEQKEYLLDLAEEIESQIRSLSGVDVEDVRKFLDKEWAWVKELLAEHPAELAEVEAARAARLAELRAEVEAKVAA | 0.539 nM |
| E58K (designed binder) MTLQELLREEALRRAEAEAFRYALELLAEKFPEQKEYLLDLAEEIESQIRSLSGVDVKDVRKFLDKEWAWVKELLAEHPAELAEVEAARAARLAELRAEVEAKVAA | 0.49 nM |
| E18D (designed binder) MTLQELLREEALRRAEADAFRYALELLAEKFPEQKEYLLDLAEEIESQIRSLSGVDVEDVRKFLDKEWAWVKELLAEHPAELAEVEAARAARLAELRAEVEAKVAA | 0.718 nM |

Next, values leading:

| apparent Kd (screen) | Binder |
| --- | --- |
| 29.5 nM | V71D (designed binder) MTLQELLREEALRRAEAEAFRYALELLAEKFPEQKEYLLDLAEEIESQIRSLSGVDVEDVRKFLDKEWAWDKELLAEHPAELAEVEAARAARLAELRAEVEAKVAA |
| 0.653 nM | R89I (designed binder) MTLQELLREEALRRAEAEAFRYALELLAEKFPEQKEYLLDLAEEIESQIRSLSGVDVEDVRKFLDKEWAWVKELLAEHPAELAEVEAAIAARLAELRAEVEAKVAA |
| 0.49 nM | A76N (designed binder) MTLQELLREEALRRAEAEAFRYALELLAEKFPEQKEYLLDLAEEIESQIRSLSGVDVEDVRKFLDKEWAWVKELLNEHPAELAEVEAARAARLAELRAEVEAKVAA |
| 13.8 nM | V85R (designed binder) MTLQELLREEALRRAEAEAFRYALELLAEKFPEQKEYLLDLAEEIESQIRSLSGVDVEDVRKFLDKEWAWVKELLAEHPAELAEREAARAARLAELRAEVEAKVAA |
| 0.405 nM | D65I (designed binder) MTLQELLREEALRRAEAEAFRYALELLAEKFPEQKEYLLDLAEEIESQIRSLSGVDVEDVRKFLIKEWAWVKELLAEHPAELAEVEAARAARLAELRAEVEAKVAA |
| 24.4 nM | V71R (designed binder) MTLQELLREEALRRAEAEAFRYALELLAEKFPEQKEYLLDLAEEIESQIRSLSGVDVEDVRKFLDKEWAWRKELLAEHPAELAEVEAARAARLAELRAEVEAKVAA |
| 1.27 nM | A83P (designed binder) MTLQELLREEALRRAEAEAFRYALELLAEKFPEQKEYLLDLAEEIESQIRSLSGVDVEDVRKFLDKEWAWVKELLAEHPAELPEVEAARAARLAELRAEVEAKVAA |
| 12.5 nM | E67F (designed binder) MTLQELLREEALRRAEAEAFRYALELLAEKFPEQKEYLLDLAEEIESQIRSLSGVDVEDVRKFLDKFWAWVKELLAEHPAELAEVEAARAARLAELRAEVEAKVAA |
| 0.718 nM | V100Q (designed binder) MTLQELLREEALRRAEAEAFRYALELLAEKFPEQKEYLLDLAEEIESQIRSLSGVDVEDVRKFLDKEWAWVKELLAEHPAELAEVEAARAARLAELRAEQEAKVAA |
| 0.49 nM | R92F (designed binder) MTLQELLREEALRRAEAEAFRYALELLAEKFPEQKEYLLDLAEEIESQIRSLSGVDVEDVRKFLDKEWAWVKELLAEHPAELAEVEAARAAFLAELRAEVEAKVAA |
| 3.63 nM | R61W (designed binder) MTLQELLREEALRRAEAEAFRYALELLAEKFPEQKEYLLDLAEEIESQIRSLSGVDVEDVWKFLDKEWAWVKELLAEHPAELAEVEAARAARLAELRAEVEAKVAA |
| 0.718 nM | A106F (designed binder) MTLQELLREEALRRAEAEAFRYALELLAEKFPEQKEYLLDLAEEIESQIRSLSGVDVEDVRKFLDKEWAWVKELLAEHPAELAEVEAARAARLAELRAEVEAKVAF |
| 0.539 nM | A69W (designed binder) MTLQELLREEALRRAEAEAFRYALELLAEKFPEQKEYLLDLAEEIESQIRSLSGVDVEDVRKFLDKEWWWVKELLAEHPAELAEVEAARAARLAELRAEVEAKVAA |
| 0.718 nM | V104I (designed binder) MTLQELLREEALRRAEAEAFRYALELLAEKFPEQKEYLLDLAEEIESQIRSLSGVDVEDVRKFLDKEWAWVKELLAEHPAELAEVEAARAARLAELRAEVEAKIAA |
| 0.49 nM | E84V (designed binder) MTLQELLREEALRRAEAEAFRYALELLAEKFPEQKEYLLDLAEEIESQIRSLSGVDVEDVRKFLDKEWAWVKELLAEHPAELAVVEAARAARLAELRAEVEAKVAA |
| 0.718 nM | A106M (designed binder) MTLQELLREEALRRAEAEAFRYALELLAEKFPEQKEYLLDLAEEIESQIRSLSGVDVEDVRKFLDKEWAWVKELLAEHPAELAEVEAARAARLAELRAEVEAKVAM |
| 0.653 nM | A90L (designed binder) MTLQELLREEALRRAEAEAFRYALELLAEKFPEQKEYLLDLAEEIESQIRSLSGVDVEDVRKFLDKEWAWVKELLAEHPAELAEVEAARLARLAELRAEVEAKVAA |
| 0.79 nM | A87F (designed binder) MTLQELLREEALRRAEAEAFRYALELLAEKFPEQKEYLLDLAEEIESQIRSLSGVDVEDVRKFLDKEWAWVKELLAEHPAELAEVEFARAARLAELRAEVEAKVAA |
| 1.27 nM | E67M (designed binder) MTLQELLREEALRRAEAEAFRYALELLAEKFPEQKEYLLDLAEEIESQIRSLSGVDVEDVRKFLDKMWAWVKELLAEHPAELAEVEAARAARLAELRAEVEAKVAA |
| 0.539 nM | V60T (designed binder) MTLQELLREEALRRAEAEAFRYALELLAEKFPEQKEYLLDLAEEIESQIRSLSGVDVEDTRKFLDKEWAWVKELLAEHPAELAEVEAARAARLAELRAEVEAKVAA |

Source: article PMC12416549 (2024)
